Article PMC3909184

Target: CXCR4 (human) (UniProt P61073)
Chain of UniProt P61073 (P61073 whole entry): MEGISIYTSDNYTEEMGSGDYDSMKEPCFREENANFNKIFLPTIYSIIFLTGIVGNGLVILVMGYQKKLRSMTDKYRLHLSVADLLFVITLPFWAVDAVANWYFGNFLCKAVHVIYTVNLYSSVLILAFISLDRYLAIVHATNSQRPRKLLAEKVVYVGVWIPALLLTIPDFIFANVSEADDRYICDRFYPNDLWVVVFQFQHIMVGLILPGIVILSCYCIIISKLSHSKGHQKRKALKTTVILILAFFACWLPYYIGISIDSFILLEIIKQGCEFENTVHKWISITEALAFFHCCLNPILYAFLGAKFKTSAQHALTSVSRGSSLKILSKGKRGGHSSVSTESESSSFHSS

- EC50 of Kir3* K+ current activation (TEVC, -50 mV) in Xenopus oocytes co-expressing CXCR4 and Kir3.1* or Kir3.4*; dose-response: 0.023 µM
Substance: WT CXCL12 (from UniProt P48061 22-93) (ligand)
